One assay has as its target T1, Bovine Serum Albumin (bovine, UniProt P02769 25-607).
T1 construct: also called BSA
Kind of assay: ELISA, group 5, BSA. In general terms: An ELISA detects its analyte on a solid surface through an enzyme-linked reagent.

The target in the next assay is Streptavidin (UniProt P22629 37-163). The assay can be described thus: ELISA, group 6, Streptavidin.
In assay [1] the target is multiple antigen peptide presenting amino acids 144-153 of the human prion protein (MAP-PrP […]) (human). Kind of assay: ELISA, group 3, MAP-PrP.

Numbering of substitutions follows the chain as printed.

Chain of Streptavidin (P22629 37-163 limits assumed): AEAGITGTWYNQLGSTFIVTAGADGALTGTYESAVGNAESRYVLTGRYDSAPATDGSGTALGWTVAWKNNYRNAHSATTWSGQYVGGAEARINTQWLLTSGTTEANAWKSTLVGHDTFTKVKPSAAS
T1 sequence (P02769 25-607 limits assumed): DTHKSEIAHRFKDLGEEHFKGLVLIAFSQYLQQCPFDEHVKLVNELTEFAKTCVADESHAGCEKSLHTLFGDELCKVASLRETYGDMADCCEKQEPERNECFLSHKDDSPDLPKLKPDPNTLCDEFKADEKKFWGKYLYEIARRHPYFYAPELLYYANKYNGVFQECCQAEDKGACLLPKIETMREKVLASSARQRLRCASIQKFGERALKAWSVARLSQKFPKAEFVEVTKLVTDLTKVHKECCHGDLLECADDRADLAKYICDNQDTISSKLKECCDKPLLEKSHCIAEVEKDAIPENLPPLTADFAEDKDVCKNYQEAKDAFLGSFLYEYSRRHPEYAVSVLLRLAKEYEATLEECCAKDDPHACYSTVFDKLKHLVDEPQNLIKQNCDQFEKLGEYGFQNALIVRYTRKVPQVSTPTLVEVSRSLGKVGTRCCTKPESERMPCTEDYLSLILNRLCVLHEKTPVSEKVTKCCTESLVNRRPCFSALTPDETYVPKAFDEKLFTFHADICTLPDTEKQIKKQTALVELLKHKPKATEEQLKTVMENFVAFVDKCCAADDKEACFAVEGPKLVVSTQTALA

B1: A4 scFv (scFv)
scFv: VQLLESGGGLVQPGGSLRLSCAASGFTFSGYWMHWVRQAPGKGLEWVSEISGSGDSTHYGDSVKGRFTISRDNSKNTLYLQMNSLRAEDTAVYYCARGRNGSLDYWGQGTLVTVSSGSAGGGGSGGGGSGGGGSDIVLTQPPSASGTPGQRVTISCTGNSSNIGAGYDVHWYQQLPGKAPKLLIYSNNQRPSGVPDRFSGSKSGTSASLAISGLRSEDEADYYCAAWDDSLSSVVFGGGTKLTV
As for B1, the binding result with Bovine Serum Albumin and in the assay with Streptavidin was “no binding (tested: not given on the sheet)” each time.

B2: F2 scFv (scFv)
scFv: B1 scFv with T157S, N159T, G166D, S186D, Q189K, P195S, D229S, K241Q
As to B2, the binding result (in assay [1]; with Streptavidin) was “no binding (tested: not given on the sheet)” in each case.

B3: B6 scFv (scFv)
scFv: B1 scFv with N159S, S161A, S186D, N188D, Q189K, S230R, S233G, L242V
With B3, the binding result (with Bovine Serum Albumin; in assay [1]; with Streptavidin) was “no binding (tested: not given on the sheet)” each time.

These data come from patent US20110262447A1 (RAMOT AT TEL AVIV UNIVERSITY, published 2011).
